B1: mRBT1N121 fused to the GAL4 activation domain (pGADT7-mRBT1N121) (other, mouse, UniProt Q9ERC3 1-121, looked up, not shown: large carriers)
chain: MGGLKRKHSDLEEEEEEEKWDWSPTALRSYQQALLRISLDKVQRSLGPRAPSLRRHVLIHNTLQQLQAAIRLAPAPALPPEPLFLGEEDFSLSTTIGSILRELDTSMDEMEPPLNPAASSS
notes: Made by removing the Xho I fragment from pGADT7-mRBT1
B2: mouse Replication Protein Binding Trans-Activator (mRBT1) fused to the GAL4 activation domain (pGADT7-mRBT1) (other, UniProt Q9ERC3 1-197, looked up, not shown: large carriers)
chain: MGGLKRKHSDLEEEEEEEKWDWSPTALRSYQQALLRISLDKVQRSLGPRAPSLRRHVLIHNTLQQLQAAIRLAPAPALPPEPLFLGEEDFSLSTTIGSILRELDTSMDEMEPPLNPAASSSPQNEIVSQADPVFLEALSSRYLGDSGLDDFFLDIDTSAVEKDVALPPPEPPHSLFCSPGSWEWNELDHIMEIILGS
B3: mRBT1C76 fused to the GAL4 activation domain (pGADT7-mRBT1C76) (other, UniProt P04386 768-881, looked up)
chain: ANFNQSGNIADSSLSFTFTNSSNGPNLITTQTNSQALSQPIASSNVHDNFMNNEITASKIDDGNNSKPLSPGWTDQTAYNAFGITTGMFNTTTMDDVYNYLFDDEDTPPNPKKEPQNEIVSQADPVFLEALSSRYLGDSGLDDFFLDIDTSAVEKDVALPPPEPPHSLFCSPGSWEWNELDHIMEIILGS
notes: PCR product encoding the C-terminal 76 amino acids of mRBT1 cloned into EcoR I and Sma I sites of pGADT7; also called C-terminal 76 amino acids of mRBT1

How the values were obtained:
[1] = target: T1, mLATS2N96 fused to the GAL4 DNA binding domain (pGBKT7-mLATS2N96) (mouse, UniProt P04386 1-147 (Saccharomyces cerevisiae entry)); experiment: yeast two-hybrid (growth on quadruple dropout plates)
T1 construct: Made by removing the Pst I fragment from pGBKT7-mLATS2b; also called N-terminal 96 amino acids of mLATS2/2b

[2] = target: T2, mLATS2b fused to the GAL4 DNA binding domain (pGBKT7-mLATS2b) (mouse, UniProt P04386 1-147 (Saccharomyces cerevisiae entry)); experiment: as above
T2 construct: expressed in yeast AH109; also called clone 3-1; mLATS2/2b

[3] = target: T2, mLATS2b fused to the GAL4 DNA binding …; experiment: yeast two-hybrid
[4] = target: T3, mLATS2 fused to the GAL4 DNA binding domain (pGBKT7-mLATS2) (mouse, UniProt P04386 1-147; Q7TSJ6 1-1042); experiment: yeast two-hybrid (growth on quadruple dropout plates)
T3 construct: Made by inserting the Bsm I-Xho I fragment of pcDNA3-mLATS2 into pGBKT7-mLATS2b; also called mLATS2/2b

Binder | binding result [1] | binding result [2] | binding result [3] | binding result [4]
B1 | no binding | binds | – | –
B2 | no binding | – | binds | –
B3 | – | no binding | – | no binding
